Tests used:
[1] = molecular target: T1, SARS-CoV-2 Spike receptor-binding domain (residues 330-541) (SARS-CoV-2, UniProt P0DTC2 330-541); test: BLI
[2] = molecular target: T1, SARS-CoV-2 Spike receptor-binding …; test: BLI; remark: listed apart in the source

B1: MR17 (synthetic nanobody, sybody) (VHH)
VHH: QVQLVESGGGLVQAGGSLRLSCAASGFPVEVWRMEWYRQAPGKEREGVAAIESYGHGTRYADSVKGRFTISRDNAKNTVYLQMNSLKPEDTAVYYCNVKDDGQLAYHYDYWGQGTQVTVSA
- Kd [1]: 83.7 nM
- koff [2]: 0.0097 s⁻¹

B2: MR6 (synthetic nanobody, sybody) (VHH)
VHH: QVQLVESGGGLVQAGGSLRLSCAASGFPVEDTWMEWYRQAPGKEREWVAAITSWGFKTYYADSVKGRFTISRDNAKNTVYLQMNSLKPEDTAVYYCNVKDEGDTSASYDYWGQGTQVTVSS
- koff [2]: 0.0072 s⁻¹

From article PMC7959386 (2021)
